Test results reported in US7897573B2, “Selective VPAC2 receptor peptide agonists” (priority 2005, dated 2011).

Columns and labels:
[1] = biological target: T1, Human VPAC1 Receptor (Homo sapiens, UniProt P32241); assay: Filter binding assay, 125I-labeled VIP, membranes of cells transiently transfected with human VPAC1; conditions: 125I-labeled VIP tracer
T1 construct: expressed in transfected cells
T1 sequence (P32241 31-457): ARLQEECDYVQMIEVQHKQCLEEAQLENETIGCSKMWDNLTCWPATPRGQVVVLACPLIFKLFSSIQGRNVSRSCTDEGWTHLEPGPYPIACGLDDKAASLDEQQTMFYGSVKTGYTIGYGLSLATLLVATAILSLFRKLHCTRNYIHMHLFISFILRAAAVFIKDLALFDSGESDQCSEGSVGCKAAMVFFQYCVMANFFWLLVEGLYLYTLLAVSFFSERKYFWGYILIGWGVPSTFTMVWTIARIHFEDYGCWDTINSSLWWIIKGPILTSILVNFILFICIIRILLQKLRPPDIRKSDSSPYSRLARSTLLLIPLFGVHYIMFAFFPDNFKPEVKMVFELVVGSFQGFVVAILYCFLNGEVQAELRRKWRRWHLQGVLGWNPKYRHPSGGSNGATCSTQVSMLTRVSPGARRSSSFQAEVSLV
Procedure: (§1) For this assay, the solutions and equipment include:
(§2) Presoak solution: 0.5% Polyethyleneamine in Aqua dest
(§3) Buffer for flushing filter plates: 25 mM HEPES pH 7.4
(§4) Blocking buffer: 25 mM HEPES pH 7.4; 0.2% protease free BSA
(§5) Assay buffer: 25 mM HEPES pH 7.4; 0.5% protease free BSA
(§6) Dilution and assay plate: PS-Microplate, U form
(§7) Filtration Plate Multiscreen FB Opaque Plate; […] Type B Glasfiber filter
(§8) In order to prepare the filter plates, the presoak solution is aspirated by vacuum filtration. The plates are flushed twice with 200 μL flush buffer. 200 μL blocking buffer is added to the filter plate. The filter plate is then incubated with 200 μL presoak solution for 1 hour at room temperature.
(§9) The assay plate is filled with 25 μL assay buffer, 25 μL membranes (2.5 μg) suspended in assay buffer, 25 μL agonist in assay buffer, and 25 μL tracer (about 40000 cpm) in assay buffer. The filled plate is incubated for 1 hour with shaking.
(§10) The transfer from assay plate to filter plate is conducted. The blocking buffer is aspirated by vacuum filtration and washed two times with flush buffer. 90 μL is transferred from the assay plate to the filter plate. The 90 μL transferred from assay plate is aspirated and washed three times with 200 μL flush buffer. The plastic support is removed. It is dried for 1 hour at 60° C. 30 μL Microscint is added. The count is performed.

[2] = biological target: T2, Human PAC1 Receptor (Homo sapiens, UniProt P41586); assay: Filter binding assay, 125I-labeled PACAP-27, membranes of cells transiently transfected with human PAC1; conditions: 125I-labeled PACAP-27 tracer
T2 construct: expressed in transfected cells
T2 sequence (P41586 21-468): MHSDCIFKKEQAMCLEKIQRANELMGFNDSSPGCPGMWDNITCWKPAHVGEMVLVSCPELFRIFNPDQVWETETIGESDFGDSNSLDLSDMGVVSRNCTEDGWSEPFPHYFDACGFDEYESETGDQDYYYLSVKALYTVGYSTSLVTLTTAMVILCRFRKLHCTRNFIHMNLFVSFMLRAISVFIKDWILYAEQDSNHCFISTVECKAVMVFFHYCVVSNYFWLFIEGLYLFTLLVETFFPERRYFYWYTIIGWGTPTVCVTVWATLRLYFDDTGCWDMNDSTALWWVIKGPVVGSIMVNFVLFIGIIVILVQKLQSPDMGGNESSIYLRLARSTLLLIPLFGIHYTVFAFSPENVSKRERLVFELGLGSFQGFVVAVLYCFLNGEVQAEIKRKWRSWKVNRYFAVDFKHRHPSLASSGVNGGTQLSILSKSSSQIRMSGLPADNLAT
Procedure: as §1, §2, §3, §4, §5, §6, §7, §8, §9, §10

[3] = Pharmacokinetic profiles of PEGylated peptides in Fisher 344 rats; format: in vivo, rat; conditions: 100 μg agonist/kg, plasma RIA, mean N = 3
Procedure: Pharmacokinetic profiles of PEGylated peptides. Healthy Fisher 344 rats (3 animals per group) were injected with 100 μg agonist/kg (agonist amount based on peptide content and dissolved in PBS buffer). Blood samples were drawn 3, 12, 24, 48, 72, 96 and 168 hour post dosing and the peptide content in plasma was analysed by a radio-immunoassay (RIA) directed against the N-terminus of the peptide. PK parameters were then calculated using a model-independent method (WinNonlin Pro, Pharsight Corp., Mountain View, Calif., USA).

[4] = Rat serum stability study (DiscoveRx cAMP read-out on CHO-VPAC2 cells); conditions: EC50, 4° C./EC50, 37° C., values >100% may represent release of intact peptide from the PEG conjugate; for 72 h stab (%): 72 h in rat serum at 37° C.; for 24 h stab (%): 24 h in rat serum at 37° C.
Procedure: In order to determine the stability of VPAC2 receptor peptide agonists in rat serum, CHO-VPAC2 cells clone #6 (96 well plates/50,000 cells/well and 1 day culture), PBS 1× (Gibco), the peptides for the analysis in a 100 μM stock solution, rat serum from a sacrificed normal Wistar rat, aprotinin, and a DiscoveRx assay kit are obtained. The rat serum is stored at 4° C. until use and is used within two weeks.
The aliquot is stored with aprotinin at 4° C. The aliquot is stored without aprotinin at 37° C. The aliquots are incubated for 24 or 72 hours.
On Day 1, after incubation of the aliquots prepared on day 0 for 24 or 72 hours, an incubation buffer containing PBS+1.3 mM CaCl2, 1.2 mM MgCl2, 2 mM glucose, and 0.25 mM IBMX is prepared. A plate with 11 serial 5× dilutions of peptide for the 4° C. and 37° C. aliquot is prepared for each peptide studied. […] The plate(s) are washed with cells twice in incubation buffer. The plates are allowed to hold 50 μL incubation media per well for 15 minutes. 50 μL solution per well is transferred to the cells from the plate prepared with 11 serial 5× dilutions of peptide for the 4° C. and 37° C. aliquot for each peptide studied, using the maximal concentrations that are indicated by the primary screen, in duplicate. This step dilutes the peptide concentration by a factor of two. The cells are incubated at room temperature for 30 minutes. The supernatant is removed. 40 μL/well of the DiscoveRx antibody/extraction buffer is added. The cells are incubated on the shaker (300 rpm) for 1 hour. Normal procedure with the DiscoveRx kit is followed. cAMP standards are included in column 12. EC50 values are determined from the cAMP assay data.

C6-HSDAVFTEQY(OMe)TOrnLRAibQC(PEG40K)AAbuAibOrnYLQAibIOrnOrnGGPSSGAPPPS-NH2 (HSDAVFTEQYTXLRXQCAXXXYLQXIXXGGPSSGAPPPS; C6 acyl, PEG40K on Cys, C-terminal amide; Synthetic sequence PEGylated VPAC2 receptor agonist) [Agonist P545]
IC50 [1]: > 25000 nM
IC50 [2]: > 25000 nM
AUC0-last [3]: 12737 ng·h/mL
Cl/F [3]: 7 mL/h/kg
Cmax [3]: 139 ng/mL
Tmax [3]: 72 h
T½ [3]: 43 h

C6-HSDAVFTEQY(OMe)TOrnLRAibQLAAbuAibOrnY(OMe)LQSIOrnOrnGGPSSGAPPPC(PEG20K)C(PEG20K)-NH2 (HSDAVFTEQYTXLRXQLAXXXYLQSIXXGGPSSGAPPPCC; C6 acyl, non-natural residues, two PEG20K, C-terminal amide; Synthetic sequence PEGylated VPAC2 receptor agonist) [Agonist P582]
IC50 [1]: > 25000 nM
IC50 [2]: > 25000 nM

C6-HSDAVFTEQY(OMe)TOrnLRAibQLAAbuAibOrnYAibQSIOrnOrnGGPSSGAPPPC(PEG20K)C(PEG20K)-NH2 (HSDAVFTEQYTXLRXQLAXXXYXQSIXXGGPSSGAPPPCC; C6 acyl, two PEG20K, C-terminal amide; Synthetic sequence PEGylated VPAC2 receptor agonist) [Agonist P521]
AUC0-last [3]: 7633 ng·h/mL
Cl/F [3]: 13 mL/h/kg
Cmax [3]: 233 ng/mL
Tmax [3]: 12 h
T½ [3]: 19 h
72 h stab (%) [4]: 294%

C6-HSDAVFTEQY(OMe)TOrnLRAibQLAAbuAibOrnYLQAibIOrnC(PEG20K)OrnGGPSSGAPPPC(PEG20K)-NH2 (HSDAVFTEQYTXLRXQLAXXXYLQXIXCXGGPSSGAPPPC; C6 acyl, two PEG20K, C-terminal amide; Synthetic sequence PEGylated VPAC2 receptor agonist) [Agonist P553]
IC50 [1]: > 25000 nM
IC50 [2]: > 25000 nM

C6-HSDAVFTEQY(OMe)TOrnLRAibQLAAbuAibOrnYLQAibIOrnC(PEG40K)OrnGGPSSGAPPPS-NH2 (HSDAVFTEQYTXLRXQLAXXXYLQXIXCXGGPSSGAPPPS; C6 acyl, PEG40K on Cys, C-terminal amide; Synthetic sequence PEGylated VPAC2 receptor agonist) [Agonist P537]
IC50 [1]: > 25000 nM
IC50 [2]: > 25000 nM

C6-HSDAVFTEQY(OMe)TOrnLRAibQLAAbuAibOrnYLQAibIOrnOrnC(PEG20K)GGPSSGAPPPC(PEG20K)-NH2 (HSDAVFTEQYTXLRXQLAXXXYLQXIXXCGGPSSGAPPPC; C6 acyl, non-natural residues, two PEG20K, C-terminal amide; Synthetic sequence PEGylated VPAC2 receptor agonist) [Agonist P580]
IC50 [1]: > 25000 nM
IC50 [2]: > 25000 nM

C6-HSDAVFTEQY(OMe)TOrnLRAibQLAAbuAibOrnYLQSIOrnC(PEG40K)OrnGGPSSGAPPPS-NH2 (HSDAVFTEQYTXLRXQLAXXXYLQSIXCXGGPSSGAPPPS; C6 acyl, PEG40K on Cys, C-terminal amide; Synthetic sequence PEGylated VPAC2 receptor agonist) [Agonist P539]
AUC0-last [3]: 4013 ng·h/mL
Cl/F [3]: 25 mL/h/kg
Cmax [3]: 102 ng/mL
Tmax [3]: 24 h
T½ [3]: 15 h
24 h stab (%) [4]: 123%

C6-HSDAVFTEQY(OMe)TOrnLRAibQLAAbuAibOrnYLQSIOrnOrnC(PEG20K)GGPSSGAPPPC(PEG20K)-NH2 (HSDAVFTEQYTXLRXQLAXXXYLQSIXXCGGPSSGAPPPC; C6 acyl, two PEG20K, C-terminal amide; Synthetic sequence PEGylated VPAC2 receptor agonist) [Agonist P572]
IC50 [1]: > 25000 nM
IC50 [2]: > 25000 nM

C6-HSDAVFTEQY(OMe)TOrnLRAibQLAbuAAibOrnYLQSIOrnOrnGGPSSGAPPPC(PEG20K)C(PEG20K)-NH2 (HSDAVFTEQYTXLRXQLXAXXYLQSIXXGGPSSGAPPPCC; C6 acyl, non-natural residues, two PEG20K, C-terminal amide; Synthetic sequence PEGylated VPAC2 receptor agonist) [Agonist P590]
IC50 [1]: > 25000 nM
IC50 [2]: > 25000 nM

C6-HSDAVFTEQY(OMe)TOrnLRAibQVAAAibK(CO(CH2)2SPEG20K)YLQSIOrnOrnGGPSSGAPPPS-NH2 (HSDAVFTEQYTXLRXQVAAXXYLQSIXXGGPSSGAPPPS; C6 acyl; PEG20K; non-natural residues; amide; Synthetic sequence PEGylated VPAC2 receptor peptide agonist) [Agonist P473]
IC50 [1]: > 25000 nM
24 h stab (%) [4]: 86%

C6-HSDAVFTEQY(OMe)TOrnLRC(PEG40K)QVAAAibOrnYLQSIOrnOrnGGPSSGAPPPS-NH2 (HSDAVFTEQYTXLRCQVAAXXYLQSIXXGGPSSGAPPPS; N-terminal C6 acyl, PEG40K on Cys, C-terminal amide; Synthetic sequence PEGylated VPAC2 receptor agonist) [Agonist P483]
IC50 [1]: > 25000 nM
24 h stab (%) [4]: 22%

C6-HSDAVFTEQY(OMe)TOrnLRK(WPEG40K)QVAAAibOrnYLQSIOrnOrnGGPSSGAPPPS-NH2 (HSDAVFTEQYTXLRXQVAAXXYLQSIXXGGPSSGAPPPS; C6 acyl, PEG40K on Lys, C-terminal amide; Synthetic sequence PEGylated VPAC2 receptor agonist) [Agonist P529]
72 h stab (%) [4]: 119%

C6-HSDAVFTEQY(OMe)TRAibRAibQLAAAibOrnY(OMe)LQSIKAibOrnGGPSSGAPPPC(PEG40K)-NH2 (HSDAVFTEQYTRXRXQLAAXXYLQSIKXXGGPSSGAPPPC; C6 acyl; PEG40K; non-natural residues; amide; Synthetic sequence PEGylated VPAC2 receptor peptide agonist) [Agonist P417]
IC50 [1]: > 25000 nM
24 h stab (%) [4]: 265%

C6-HSDAYFTEQY(OMe)TOrnLRAibQLAAbuAibOrnYLQSIOrnK(CO(CH2)2SPEG20K)OrnGGPSSGAPPPC(PEG20K)-NH2 [Agonist P551]
IC50 [1]: > 25000 nM
IC50 [2]: > 25000 nM
